B1: DNA polymerase III subunit tau (Bacillus subtilis), P09122 (parent)
chain: MSYQALYRVFRPQRFEDVVGQEHITKTLQNALLQKKFSHAYLFSGPRGTGKTSAAKIFAKAVNCEHAPVDEPCNECAACKGITNGSISDVIEIDAASNNGVDEIRDIRDKVKFAPSAVTYKVYIIDEVHMLSIGAFNALLKTLEEPPEHCIFILATTEPHKIPLTIISRCQRFDFKRITSQAIVGRMNKIVDAEQLQVEEGSLEIIASAADGGMRDALSLLDQAISFSGDILKVEDALLITGAVSQLYIGKLAKSLHDKNVSDALETLNELLQQGKDPAKLIEDMIFYFRDMLLYKTAPGLEGVLEKVKVDETFRELSEQIPAQALYEMIDILNKSHQEMKWTNHPRIFFEVAVVKICQTSHQSAADLPEVDMLMKKIQQLEQEVERLKTTGIKAAAESPKKEAPRVPKGGKSNYKAPVGRIHEILKEATRPDLDLLRNSWGKLLAHLKQQNKVSHAALLNDSEPVAAGSAAFVLKFKYEIHCKMVAEDNNGVRTNLEQILESMLGKRMDLIGVPEAQWGKIREEFLEDHQQENEGSNEPAEEDPLIAEAKKLVGADLIEIKD
partner: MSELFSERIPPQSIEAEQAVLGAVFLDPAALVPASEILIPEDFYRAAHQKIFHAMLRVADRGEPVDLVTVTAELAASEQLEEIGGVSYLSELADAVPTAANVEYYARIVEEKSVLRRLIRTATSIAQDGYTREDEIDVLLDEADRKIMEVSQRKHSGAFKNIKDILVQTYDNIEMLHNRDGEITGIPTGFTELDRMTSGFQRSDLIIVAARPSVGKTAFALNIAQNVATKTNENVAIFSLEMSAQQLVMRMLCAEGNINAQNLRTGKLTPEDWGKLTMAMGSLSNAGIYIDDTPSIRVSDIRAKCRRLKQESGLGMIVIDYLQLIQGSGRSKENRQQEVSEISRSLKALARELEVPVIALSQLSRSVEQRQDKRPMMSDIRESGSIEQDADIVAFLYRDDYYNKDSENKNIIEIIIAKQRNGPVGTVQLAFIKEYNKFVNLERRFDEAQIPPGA

Variants of: B1
Conditions: with dnab_geose dnaB

Effect of a mutation on the interaction, decreasing interaction strength:
G492R
D510S
A550V
F473L
C483S
W519R

— IntAct's records for PubMed 19415803
